Results as given in patent US8071348B2, “Protein tyrosine phosphatase substrate-trapping double mutant and uses thereof” (Albert Einstein College of Medicine of Yeshiva University, priority 2002, dated 2011).

Key:
[1] = target: epidermal growth factor receptor (EGFR) of COS1 cells, tyrosine-phosphorylated (monkey (COS1 cells)); assay: co-immunoprecipitation from EGF-treated COS1 lysates with anti-HA agarose, anti-pTyr blot
[2] = target: epidermal growth factor receptor (EGFR) of COS1 cells, tyrosine-phosphorylated (monkey (COS1 cells)); assay: cell-based or functional assay

HA-tagged full-length human PTP1B D181A/Q262A (from UniProt P18031 1-435) (enzyme)
fold greater quantity of tyrosine-phosphorylated EGF receptor co-precipitated than with the D181A mutant [1]: > 3 fold
protection of the phosphorylated EGF receptors in COS1 cells, against the D181A mutant (anti-pTyr immunoblot of lysates) [2]: 3 fold
